Results as given in paper PMC6435160, “Initiation-specific alleles of the Cdc45 helicase-activating protein” (PLoS ONE, 2019).

B1: Cdc45-124 (DAH->AAA) (natural protein, S. cerevisiae, UniProt Q08032 1-650, looked up)
chain: MYYGISQFSEAYNKILRNSSSHSSCQLVIFVSCLNIDALCATKMLSLLFKKQLVQSQIVPIFGYSELRRHYSQLDDNINSLLLVGFGGVIDLEAFLEIDPQEYVIDTDEKSGEQSFRRDIYVLAAARPWNLDNIFGSQIIQCFDDGTVDDTLGEQKEAYYKLLELDEESGDDELSGDENDNNGGDDEATDADEVTDEDEEDEDETISNKRGNSSIGPNDLSKRKQRKKQIHEYEGVLEEYYSQGTTVVNSISAQIYSLLSAIGETNLSNLWLNILGTTSLDIAYAQVYNRLYPLLQDEVKRLTPSSRNSVKTPDTLTLNIQPDYYLFLLRHSSLYDSFYYSNYVNAKLSLWNENGKKRLHKMFARMGIPLSTAQETWLYMDHSIKRELGIIFDKNLDRYGLQDIIRDGFVRTLGYRGSISASEFVEALTALLEVGNSTDKDSVKINNDNNDDTDGEEEEDNSAQKLTNLRKRWVSNFWLSWDALDDRKVELLNRGIQLAQDLQRAIFNTGVAILEKKLIKHLRIYRLCVLQDGPDLDLYRNPLTLLRLGNWLIECCAESEDKQLLPMVLASIDENTDTYLVAGLTPRYPRGLDTIHTKKPILNNFSMAFQQITAETDAKVRIDNFESSIIEIRREDLSPFLEKLTLSGLL
notes: Cdc45, Saccharomyces cerevisiae, clustered alanine mutant; mutants are numbered by the position of the first mutated amino acid; also called Cdc45-ts
B2: Cdc45-485 (DDRK->AAAA) (natural protein, S. cerevisiae, UniProt Q08032 1-650, looked up)
chain: MYYGISQFSEAYNKILRNSSSHSSCQLVIFVSCLNIDALCATKMLSLLFKKQLVQSQIVPIFGYSELRRHYSQLDDNINSLLLVGFGGVIDLEAFLEIDPQEYVIDTDEKSGEQSFRRDIYVLDAHRPWNLDNIFGSQIIQCFDDGTVDDTLGEQKEAYYKLLELDEESGDDELSGDENDNNGGDDEATDADEVTDEDEEDEDETISNKRGNSSIGPNDLSKRKQRKKQIHEYEGVLEEYYSQGTTVVNSISAQIYSLLSAIGETNLSNLWLNILGTTSLDIAYAQVYNRLYPLLQDEVKRLTPSSRNSVKTPDTLTLNIQPDYYLFLLRHSSLYDSFYYSNYVNAKLSLWNENGKKRLHKMFARMGIPLSTAQETWLYMDHSIKRELGIIFDKNLDRYGLQDIIRDGFVRTLGYRGSISASEFVEALTALLEVGNSTDKDSVKINNDNNDDTDGEEEEDNSAQKLTNLRKRWVSNFWLSWDALAAAAVELLNRGIQLAQDLQRAIFNTGVAILEKKLIKHLRIYRLCVLQDGPDLDLYRNPLTLLRLGNWLIECCAESEDKQLLPMVLASIDENTDTYLVAGLTPRYPRGLDTIHTKKPILNNFSMAFQQITAETDAKVRIDNFESSIIEIRREDLSPFLEKLTLSGLL
notes: as for B1
B3: Cdc45-238 (EEY->AAA) (natural protein, S. cerevisiae, UniProt Q08032 1-650, looked up)
chain: MYYGISQFSEAYNKILRNSSSHSSCQLVIFVSCLNIDALCATKMLSLLFKKQLVQSQIVPIFGYSELRRHYSQLDDNINSLLLVGFGGVIDLEAFLEIDPQEYVIDTDEKSGEQSFRRDIYVLDAHRPWNLDNIFGSQIIQCFDDGTVDDTLGEQKEAYYKLLELDEESGDDELSGDENDNNGGDDEATDADEVTDEDEEDEDETISNKRGNSSIGPNDLSKRKQRKKQIHEYEGVLAAAYSQGTTVVNSISAQIYSLLSAIGETNLSNLWLNILGTTSLDIAYAQVYNRLYPLLQDEVKRLTPSSRNSVKTPDTLTLNIQPDYYLFLLRHSSLYDSFYYSNYVNAKLSLWNENGKKRLHKMFARMGIPLSTAQETWLYMDHSIKRELGIIFDKNLDRYGLQDIIRDGFVRTLGYRGSISASEFVEALTALLEVGNSTDKDSVKINNDNNDDTDGEEEEDNSAQKLTNLRKRWVSNFWLSWDALDDRKVELLNRGIQLAQDLQRAIFNTGVAILEKKLIKHLRIYRLCVLQDGPDLDLYRNPLTLLRLGNWLIECCAESEDKQLLPMVLASIDENTDTYLVAGLTPRYPRGLDTIHTKKPILNNFSMAFQQITAETDAKVRIDNFESSIIEIRREDLSPFLEKLTLSGLL
notes: as for B1
B4: GINS complex (Sld5, Psf1, Psf2, Psf3) (complex, S. cerevisiae)
chain 1: MDINIDDILAELDKETTAVDSTKITQGSSSTTHRDANTIVGSSLDLNDKTQIYVSPQQDFSDLMKSWKNERCSPELLPYPHQLMKRLLNRISMQSQLIENISMGFLDMQNASNANPPMPNESKLPLLCMETELERLKFVIRSYIRCRLSKIDKFSLYLRQLNEDENSLISLTDLLSKDEIKYHDTHSLIWLKLVNDSILKYMPEELQAINDTEGSVNMIDEPDWNKFVFIHVNGPPDGKWNEDPLLQENEFGKPCYTVTIPDLKEEVELTIGSIYVMRYEVIRDLLRDDKVALI
chain 2: MYGDLGNKLVLEAKRTKQLYARSNQDVNLPMYHEDIIRNILKEVSNLRKNTEYLKEQQQLGMLDDKVAKCQYFVTLLCMERNKRCLLAYQRLRTDILDSMAWNNNGLDLMSSITFSQQDTNNLSHQEQEYLKEYCDLITDLKSGDLVDIDLSGSLVPPSDVFIDVRVLKDAGEIQTEYGVFNLIKDSQFFVRQSDVERLIQQGYLQKI
chain 3: MSLPAHLQQTFSPEEIQFIVENEPIKIFPRITTRQKIRGDDRGTGNHTRWQLITTDDKALNNMVAMRSTEVVLWIALLLKQQSKCSIVAPQWLTTKELDRKIQYEKTHPDRFSELPWNWLVLARILFNKAKDDFHDPIHELRGKIQDLREIRQIKVLKGLKYLNESHLQLDNLSLLEINELRPFITEIMDKLREIHTASLTAGTENDEEEFNI
chain 4: MGYYDIDDVLADGTEFPCKFQYDIPGLGYLENNPGRPITKNTKLSLPLWLARILAIVGGDEALVDEEPVPFVELLPPDMFSTKVMNAIKTDPVALDLHSINSHFFSLAIKWIMLFSEKELANVVSELLLQRAQELNHHASSLSIDLNADSTGKNSANTNIATSTFLLKLEEMEKEIYKKSHESYKDTKRWMFKK
notes: Sld5 subunit of GINS, S. cerevisiae; Psf1 subunit of GINS, S. cerevisiae; Psf2 subunit of GINS, S. cerevisiae; expressed as Psf2-3C-6xHis-Flag, tag removed with HRV 3C protease; Psf3 subunit of GINS, S. cerevisiae; not shown: 6xHis, C-terminal, cleaved; Flag, C-terminal, cleaved; copies: + + +

Tests used:
[1] = molecular target: T1, Mcm2-7 replicative DNA helicase, loaded on origin DNA and phosphorylated by DDK (S. cerevisiae, UniProt P29469 1-868; P24279 1-971; P30665 1-933; P29496 1-775; P53091 1-1017; P38132 …); assay: pull-down; CMG formation assay: Mcm2-7 loaded on bead-attached origin DNA (pUC19-ARS1) and treated with DDK; S-CDK, Sld2, Dpb11, Pol ε, GINS, Mcm10, Sld3/7 and 50 nM Cdc45 added, no Pol α-primase; 30 min at 25°C; beads washed with buffer H + 0.3 M KCl, 0.02% NP-40 (salt-stable complexes); proteins released with DNase and detected by immunoblot; amounts relative to wild type; conditions: both partners purified
T1 construct: Mcm2 subunit of Mcm2-7, S. cerevisiae; Mcm3 subunit of Mcm2-7, S. cerevisiae; Mcm4 subunit of Mcm2-7, S. cerevisiae; Mcm5 subunit of Mcm2-7, S. cerevisiae; Mcm6 subunit of Mcm2-7, S. cerevisiae; Mcm7 subunit of Mcm2-7, S. cerevisiae; In the assays the complex was loaded on origin DNA and treated with DDK; also called Mcm2-7 complex; loaded Mcm2-7; source: Mcm2-7/Cdt1 purified as previously …

[2] = molecular target: T1, Mcm2-7 replicative DNA helicase, loaded …; assay: pull-down; reconstituted DNA replication assay: Mcm2-7 loaded on bead-attached origin DNA (pARS1-Nco) and treated with DDK; S-CDK, Sld2, Dpb11, Pol α-primase, Pol ε, RPA, GINS, Mcm10, Sld3/7 and 130 nM Cdc45 added; 1 h at 25°C; beads washed with buffer H + 0.3 M K-Glut, 0.02% NP-40; proteins released with DNase and detected by immunoblot; amounts relative to wild type; conditions: both partners purified

Binder | stable CMG complexes, percent of wild-type Cdc45 [1] | percent of wild-type Cdc45 association [2] | binding result [2]
B1 | 67 % of wild-type Cdc45 | – | –
B2 | 43 % of wild-type Cdc45 | 27 % of wild-type Cdc45 association | –
B3 | 55 % of wild-type Cdc45 | 20 % of wild-type Cdc45 association | –
B4 | – | – | binds
